Assay [1] addresses death receptor (DR) on the plasma membrane of MDA-MB-231 cells. Briefly: cell-based or functional assay.
Assay [2] shares this target. Briefly: fluorescence of cell-associated r-TRAIL on MDA-MB-231 cells, 4 C (membrane only) against 37 C (membrane plus internalised), r-TRAIL-Gelipo 0.2 ug/mL after HAase treatment.

We go through two substances from patent US20160263137A1.

With “His-ILZ-TRAIL (residues 114-281) (from UniProt P50591 114-281) (ligand)”, in assay [1], the apoptosis ratio, Annexin V-FITC/PI flow cytometry, MDA-MB-231 cells, 12 h, free TRAIL 2 ng/mL was found to be 36.5%; the apoptosis ratio, Annexin V-FITC/PI flow cytometry, MDA-MB-231 cells, 12 h, free TRAIL 20 ng/mL was 51.7%; the viability, Annexin V-FITC/PI flow cytometry, MDA-MB-231 cells, 12 h, free TRAIL 20 ng/mL worked out at 32.3%.
With “rhodamine-labeled TRAIL (His-ILZ-TRAIL, residues 114-281, labelled with rhodamine NHS ester) (from UniProt P50591 114-281) (ligand)”, the percent of r-TRAIL bound onto the membrane in assay [2] is 80%.
